{"source": "patent US20250101135A1", "key": {"[1]": {"molecular_target": "mouse 4-1BB on activated mouse splenocytes (mouse) (UniProt P20334)", "sequence (P20334 24-256)": "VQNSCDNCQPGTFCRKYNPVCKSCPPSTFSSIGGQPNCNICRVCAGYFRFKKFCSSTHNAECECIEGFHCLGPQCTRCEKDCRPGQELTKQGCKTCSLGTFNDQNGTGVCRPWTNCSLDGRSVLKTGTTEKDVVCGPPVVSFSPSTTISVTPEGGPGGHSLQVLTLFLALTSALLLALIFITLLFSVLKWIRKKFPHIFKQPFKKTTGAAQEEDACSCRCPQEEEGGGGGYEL", "assay": "flow cytometry, activated mouse splenocytes, CD8+ T cells, PE anti-human IgG Fc secondary, MFI baseline corrected"}, "[2]": {"molecular_target": "mouse 4-1BB on activated mouse splenocytes (mouse) (UniProt P20334)", "assay": "flow cytometry, activated mouse splenocytes, CD4+ T cells, PE anti-human IgG Fc secondary, MFI baseline corrected"}}}
{"substance": "anti-mouse CD137-specific human IgG1 P329G LALA antibody (clone Lob12.3)", "values": [{"measurement": "EC50 (read off the curve)", "setting": "[1]", "value": 0.09, "unit": "nM"}, {"measurement": "EC50 (read off the curve)", "setting": "[2]", "value": 0.08, "unit": "nM"}]}
